According to patent US20260232827A1 (Zymeworks, published 2026):

B1: v22277 (palivizumab, anti-RSV negative control, heterodimeric Fc) (antibody, human IgG1, kappa)
heavy 1: GQVTLRESGPALVKPTQTLTLTCTFSGFSLSTSGMSVGWIRQPPGKALEWLADIWWDDKKDYNPSLKSRLTISKDTSKNQVVLKVTNMDPADTATYYCARSMITNWYFDVWGAGTTVTVSSASTKGPSVFPLAPSSKSTSGGTAALGCLVKDYFPEPVTVSWNSGALTSGVHTFPAVLQSSGLYSLSSVVTVPSSSLGTQTYICNVNHKPSNTKVDKKVEPKSCDKTHTCPPCPAPELLGGPSVFLFPPKPKDTLMISRTPEVTCVVVDVSHEDPEVKFNWYVDGVEVHNAKTKPREEQYNSTYRVVSVLTVLHQDWLNGKEYKCKVSNKALPAPIEKTISKAKGQPREPQVYVYPPSRDELTKNQVSLTCLVKGFYPSDIAVEWESNGQPENNYKTTPPVLDSDGSFALVSKLTVDKSRWQQGNVFSCSVMHEALHNHYTQKSLSLSPG
heavy 2: not shown
light: GDIQMTQSPSTLSASVGDRVTITCKSQLSVGYMHWYQQKPGKAPKLLIYDTSKLASGVPSRFSGSGSGTEFTLTISSLQPDDFATYYCFQGSGYPFTFGGGTKLEIKRTVAAPSVFIFPPSDEQLKSGTASVVCLLNNFYPREAKVQWKVDNALQSGNSQESVTEQDSKDSTYSLSSTLTLSKADYEKHKVYACEVTHQGLSSPVTKSFNRGEC
notes: also called neg control
B2: v18992 (MX35), reference anti-NaPi2b antibody (antibody, human IgG1, kappa)
heavy 1: GQVQLVQSGAEVVKPGASVKMSCKASGYTFTGYNIHWVKQAPGQGLEWIGAIYPGNGDTSYKQKFRGRATLTADTSTSTVYMELSSLRSEDSAVYYCARGETARATFAYWGQGTLVTVSSASTKGPSVFPLAPSSKSTSGGTAALGCLVKDYFPEPVTVSWNSGALTSGVHTFPAVLQSSGLYSLSSVVTVPSSSLGTQTYICNVNHKPSNTKVDKKVEPKSCDKTHTCPPCPAPELLGGPSVFLFPPKPKDTLMISRTPEVTCVVVDVSHEDPEVKFNWYVDGVEVHNAKTKPREEQYNSTYRVVSVLTVLHQDWLNGKEYKCKVSNKALPAPIEKTISKAKGQPREPQVYVYPPSRDELTKNQVSLTCLVKGFYPSDIAVEWESNGQPENNYKTTPPVLDSDGSFALVSKLTVDKSRWQQGNVFSCSVMHEALHNHYTQKSLSLSPG
heavy 2: not shown
light: GDIQMTQSPSSLSASVGDRVTITCSASQDIGNFLNWYQQKPGKTVKVLIYYTSSLYSGVPSRFSGSGSGTDYTLTISSLQPEDFATYYCQQYSKLPLTFGQGTKLELKRTVAAPSVFIFPPSDEQLKSGTASVVCLLNNFYPREAKVQWKVDNALQSGNSQESVTEQDSKDSTYSLSSTLTLSKADYEKHKVYACEVTHQGLSSPVTKSFNRGEC

Experiments:
[1] = target: T1, cynomolgus monkey NaPi2b (cynomolgus monkey, UniProt O95436 1-690 (human entry)); assay: flow cytometry on HEK293-6e cells transiently transfected with cynomolgus NaPi2b, antibody 18-24 h at 4 C, anti-human IgG Fc AF647
T1 construct: also called Cyno NaPi2b; Cy NaPi2b
T1 chain: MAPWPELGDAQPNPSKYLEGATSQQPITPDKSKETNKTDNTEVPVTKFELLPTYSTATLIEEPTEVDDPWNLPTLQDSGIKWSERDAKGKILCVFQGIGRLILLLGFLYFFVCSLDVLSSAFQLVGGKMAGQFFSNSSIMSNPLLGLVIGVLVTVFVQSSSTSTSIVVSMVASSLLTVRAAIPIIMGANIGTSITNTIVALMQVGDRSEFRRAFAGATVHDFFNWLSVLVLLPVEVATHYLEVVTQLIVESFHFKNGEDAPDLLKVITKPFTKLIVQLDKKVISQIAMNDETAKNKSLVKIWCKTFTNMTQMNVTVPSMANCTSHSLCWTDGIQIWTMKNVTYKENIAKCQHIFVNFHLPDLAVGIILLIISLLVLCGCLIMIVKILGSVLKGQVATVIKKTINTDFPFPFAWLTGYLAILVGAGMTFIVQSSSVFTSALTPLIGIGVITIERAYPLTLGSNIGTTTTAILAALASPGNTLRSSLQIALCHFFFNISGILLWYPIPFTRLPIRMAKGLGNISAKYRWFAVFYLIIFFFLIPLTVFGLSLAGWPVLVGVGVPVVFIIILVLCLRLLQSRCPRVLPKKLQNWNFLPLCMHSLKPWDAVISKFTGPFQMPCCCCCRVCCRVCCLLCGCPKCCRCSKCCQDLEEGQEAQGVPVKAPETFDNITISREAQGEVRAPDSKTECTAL

[2] = target: T2, Construct 6 (NaPi2b del 317-333) (human, UniProt O95436 1-690); assay: flow cytometry, HEK293-6e cells transfected with Construct 6
T2 construct: Deletion construct on HEK293-6e cells; also called CL_#29919
T2 sequence: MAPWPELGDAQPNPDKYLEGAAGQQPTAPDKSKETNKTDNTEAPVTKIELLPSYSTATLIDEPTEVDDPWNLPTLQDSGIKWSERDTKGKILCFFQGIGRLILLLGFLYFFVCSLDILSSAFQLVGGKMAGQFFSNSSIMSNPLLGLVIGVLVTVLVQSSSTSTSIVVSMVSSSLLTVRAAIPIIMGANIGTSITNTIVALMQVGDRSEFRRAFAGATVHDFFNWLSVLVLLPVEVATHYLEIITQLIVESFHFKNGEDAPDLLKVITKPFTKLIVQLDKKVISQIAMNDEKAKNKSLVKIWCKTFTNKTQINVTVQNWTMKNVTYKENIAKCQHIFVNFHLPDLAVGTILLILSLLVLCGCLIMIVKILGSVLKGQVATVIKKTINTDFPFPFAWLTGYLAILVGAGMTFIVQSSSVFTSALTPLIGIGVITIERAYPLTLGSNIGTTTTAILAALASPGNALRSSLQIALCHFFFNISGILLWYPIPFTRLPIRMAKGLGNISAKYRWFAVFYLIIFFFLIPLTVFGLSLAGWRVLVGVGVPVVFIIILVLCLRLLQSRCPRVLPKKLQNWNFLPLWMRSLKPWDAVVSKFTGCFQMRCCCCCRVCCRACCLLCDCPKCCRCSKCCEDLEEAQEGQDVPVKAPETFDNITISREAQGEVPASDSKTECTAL
Protocol: Following transfection, cells were seeded at 50,000 cells/well in conical-bottom 96-well plates and treated with a serial dilution of test antibody for 24 hours at 4° C. to prevent internalization. Cells were treated with final concentrations of all humanized antibodies of 200, 20, or 2 nM. Cells were treated with final concentrations of the reference anti-NaPi2a rabbit antibody of 50, 5, or 0.5 nM. […] Following incubation and washing, fluorescence was detected by flow cytometry on a BD LSRFortessa™ Cell Analyzer (BD Biosciences, Franklin Lake, NJ) with 1,000 minimum events collected per well. […] Background-subtracted AF647 Mean Fluorescence Intensity (MFI) values were calculated by subtracting the average MFI of three technical replicates of unstained (no primary antibody) cells.

Binder | binding result [1] | binding result [2]
B1 | no binding (tested: 200 nM) | 
B2 |  | no binding (tested: 200 nM)
